# According to US20230056252A1 (Gilead, published 2023):
# Changes are numbered by the printed parent chain. Where two headings read alike, the source gives them in different places.
# B1: huSP34.11.8 Fab-HF (Fab, V domains shown)
# VH: EVQLVESGGGLVQPGGSLRLSCAASGFTFSTYAMNWVRQAPGKGLEWVGRIRSKYNNYATYYAASVKGRFTISRDDSKNSLYLQMNSLRTEDTAVYYCVRHGNFGHSYVSWFAYWGQGTLVTVSS
# VL: QAVVTQEPSLTVSPGGTVTLTCGSSTGAVTTGHYANWVQQKPGQAPRGLIGGTNKRAPGVPARFSGSLLGGKAALTISGAQPEDEAEYYCALWYSNRWVFGGGTKLTVL
# notes: also called HC11+LC8
# B2: huSP34.34.10 Fab-HF (Fab, V domains shown)
# VH: B1 VH with S30N, R89K, V95M
# VL: B1 VL with E7P, L69S
# notes: also called HC34+LC10
# B3: huSP34.12.10 Fab-HF (Fab, V domains shown)
# VH: B1 VH with G49A
# VL: B1 VL with E7P, L69S
# notes: also called HC12+LC10
# B4: huSP34.37.10 Fab-HF (Fab, V domains shown)
# VH: B1 VH with S30N, I51T, R89K, V95M
# VL: B1 VL with E7P, L69S
# notes: also called HC37+LC10
# B5: huSP34.35.12 Fab-H (Fab, V domains shown)
# VH: B1 VH with S30N, T31D, I51T, R89K, V95M
# VL: B1 VL with E7P, G59W, V60T, L69S
# notes: also called HC35+LC12
# B6: huSP34.11.10 Fab-HF (Fab, V domains shown)
# VH: B1 VH
# VL: B1 VL with E7P, L69S
# notes: also called HC11+LC10
# B7: huSP34.10.1 Fab-HF (Fab, V domains shown)
# VH: B1 VH with T31D, I51T, N57S, R89K, Y114V
# VL: B1 VL with G23R, G32S, H33N, G59W, V60T, L69I, G71D, I77L, R97L
# notes: also called HC10+LC1
# B8: huSP34.10.4 Fab-HF (Fab, V domains shown)
# VH: B1 VH with T31D, I51T, N57S, R89K, Y114V
# VL: B1 VL with G32S, N54S, G59W, V60T, I77L, N96A, R97L
# notes: also called HC10+LC4
# B9: huSP34.34.17 Fab-HF (Fab, V domains shown)
# VH: B1 VH with S30N, R89K, V95M
# VL: B1 VL with E7P, G59W, V60T, L69S, N96A
# notes: also called HC34+LC17
# B10: huSP34.34.11 Fab-HF (Fab, V domains shown)
# VH: B1 VH with S30N, R89K, V95M
# VL: B1 VL with I77L, R97L
# notes: also called HC34+LC11
# B11: huSP34.10.5 Fab-HF (Fab, V domains shown)
# VH: B1 VH with T31D, I51T, N57S, R89K, Y114V
# VL: B1 VL with N54S, K55N, G59W, V60T, I77L, N96A
# notes: also called HC10+LC5
# B12: huSP34.12.9 Fab-HF (Fab, V domains shown)
# VH: B1 VH with G49A
# VL: B1 VL with E7P, L69S, R97L
# notes: also called HC12+LC9
# B13: huSP34.3.13 Fab-HF (Fab, V domains shown)
# VH: B1 VH with S30N, A64D
# VL: B1 VL with N54S, K55N
# notes: also called HC3+LC13
# B14: huSP34.11.7 Fab-HF (Fab, V domains shown)
# VH: B1 VH
# VL: B1 VL with G23R, R97L
# notes: also called HC11+LC7
# B15: huSP34.12.7 Fab-HF (Fab, V domains shown)
# VH: B1 VH with G49A
# VL: B1 VL with G23R, R97L
# notes: also called HC12+LC7
# B16: huSP34.34.15 Fab-HF (Fab, V domains shown)
# VH: B1 VH with S30N, R89K, V95M
# VL: B1 VL with E7P, L69S, N96A
# notes: also called HC34+LC15
# B17: huSP34.12.8 Fab-HF (Fab, V domains shown)
# VH: B1 VH with G49A
# VL: B1 VL
# notes: also called HC12+LC8
# B18: huSP34.10.2 Fab-HF (Fab, V domains shown)
# VH: B1 VH with T31D, I51T, N57S, R89K, Y114V
# VL: B1 VL with G32S, H33N, N54S, K55N, G59W, V60T, I77L, R97L
# notes: also called HC10+LC2
# B19: huSP34.13.7 Fab-HF (Fab, V domains shown)
# VH: B1 VH with S80T
# VL: B1 VL with G23R, R97L
# notes: also called HC13+LC7
# Assays:
# Test in all cases: BLI (Octet), CD3 on SA sensor, Fab analyte;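 for result: biolayer interferometry with biotinylated CD3 epsilon:delta captured on streptavidin sensors, Fab analyte at several concentrations up to 300 nM, 100 s association then 300 s dissociation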
# [1] = molecular target: T1, biotinylated CD3 epsilon:delta heterodimer protein (Amsbio AMS.CDD-H52WO) (Homo sapiens (Human), UniProt P07766 23-126; P04234 22-105)
# T1 construct: also called CD3 heterodimer
# Method: (§1) The CD3 binding kinetics of the purified huSP34 Fabs were determined using OctetRed384 (Pall ForteBio, CA) biolayer interferometry (BLI). […] Streptavidin (SA) coated biosensors tips (Pall ForteBio, CA) were used to capture biotinylated CD3 epsilon: delta heterodimer and typical immobilization levels captured on the SA sensors were 1 nm which approximately translates to 300 ng/ml of captured protein. For kinetic measurements biosensors were first pre-wetted with assay buffer for 10 minutes to remove protective sucrose coating followed by the recommended regeneration conditions for standardization of the biosensor surface for the experiment. In order to load the biosensors with antigen, 300 ng/ml of biotinylated CD3 epsilon: delta heterodimer protein (Amsbio AMS.CDD-H52WO) was immobilized on the SA sensor for 900 seconds. The CD3 loaded biosensors were then blocked with 20 ug/ml biocytin (sigma) for 200 seconds and then dipped into assay buffer containing wells for 200 seconds to remove any non-specific protein or unbound CD3 heterodimer.
# (§2) CD3 loaded and biocytin blocked biosensors were then transferred into fresh assay buffer for 200 seconds to collect a baseline read. Kinetic measurements for anti-CD3 Fab and bispecific antibody binding were performed by dipping the CD3-coated biosensors into wells containing multiple concentrations of Fab or Ab (0-300 nM) for 100 seconds followed by a 300 second dissociation time by transferring the biosensors into assay buffer containing wells. The CD3 loaded sensors were then regenerated for the next kinetic measurement. Biosensors were generated by removing bound Fabs or Ab from immobilized CD3 on SA biosensors. Regeneration conditions used consisted of 3 cycles of 5 seconds of dipping the biosensors in Regeneration Buffer (10 mM Glycine HCl pH 1.5) followed by Assay Buffer (10 mM sodium phosphate pH 7.4, 140 mM Sodium Chloride, 0.005% Tween20 with 0.2% BSA).
# [2] = molecular target: T1, biotinylated CD3 epsilon:delta …; remark: listed apart in the source
# Method: as §1, §2
# [3] = molecular target: T1, biotinylated CD3 epsilon:delta …; remark: listed apart in the source
# Method: as §1, §2
Binder,Kd [1],koff [1],kon [1],Kd [2],koff [2],kon [2],further results
B1,2.8 nM,0.00165 s⁻¹,610000 M⁻¹ s⁻¹,–,–,–,–
B2,–,–,–,4 nM,0.000303 s⁻¹,155000 M⁻¹ s⁻¹,–
B3,4.2 nM,0.00205 s⁻¹,501000 M⁻¹ s⁻¹,–,–,–,–
B4,–,–,–,16.1 nM,0.00267 s⁻¹,171000 M⁻¹ s⁻¹,–
B5,–,–,–,125 nM,0.103 s⁻¹,2.08e+06 M⁻¹ s⁻¹,–
B6,2.8 nM,0.00192 s⁻¹,697000 M⁻¹ s⁻¹,–,–,–,–
B7,–,–,–,–,–,–,binding result [3]: no binding (tested: 0-300 nM)
B8,–,–,–,–,–,–,binding result [3]: no binding (tested: 0-300 nM)
B9,–,–,–,29.9 nM,0.00816 s⁻¹,273000 M⁻¹ s⁻¹,–
B10,–,–,–,10.8 nM,0.00118 s⁻¹,143000 M⁻¹ s⁻¹,–
B11,–,–,–,–,–,–,Kd [3]: 222 nM; koff [3]: 0.0827 s⁻¹
B12,3.2 nM,0.00335 s⁻¹,1.04e+06 M⁻¹ s⁻¹,–,–,–,–
B13,–,–,–,6.2 nM,0.00129 s⁻¹,218000 M⁻¹ s⁻¹,–
B14,3.6 nM,0.00212 s⁻¹,613000 M⁻¹ s⁻¹,–,–,–,–
B15,2.7 nM,0.00244 s⁻¹,966000 M⁻¹ s⁻¹,–,–,–,–
B16,–,–,–,14.7 nM,0.0015 s⁻¹,109000 M⁻¹ s⁻¹,–
B17,3.4 nM,0.00166 s⁻¹,493000 M⁻¹ s⁻¹,–,–,–,–
B18,–,–,–,–,–,–,Kd [3]: 307 nM; koff [3]: 0.0664 s⁻¹; kon [3]: 225000 M⁻¹ s⁻¹
B19,2.8 nM,0.00275 s⁻¹,1.01e+06 M⁻¹ s⁻¹,–,–,–,–
